Test results from the DeepSol protein solubility set.

Experiment: soluble on expression in E. coli; label from the status in PepcDB or PDB records

Which “soluble on expression in E. coli” value does the source give for “MSLRKLLKKTLFSNIIILCLYLGILKCVNSHISNEIQKQNQTFDKENLESKNTQNLQKSKNPTSQLSKTILKEEFNFLPNDVEINWKGRVLVIGDIHGDLKSLITSLFLSGVINSNLDWIAKNTLLIQLGDVVDRGSHALQIYKLFNKLKSQAPSLGSKFVGLLGNHEVMNLCGQLHYVTDEDFQTYGGRDNRTFEWSKEGFVGKYLRTMKLAIRVNDSLYVHAGLLPKYAKLGLDKLDKLSNDLLEGDFCDFYSSLFFVEDGPLWTRDISLGEEEKACKLVDETLQILGLSRMVVGHTIQHDNRINIKCDNKLILADTGFSEAIYGKPCMLEILYHNDNPDPSNYKSFHPYSINELQVKSNPSKPNIKYIQVTSLFLDKTSTRDEGHHHHHH” here?
The value was “soluble”.

Which “soluble on expression in E. coli” value does the source give for “MSLRKVFEESKIGNIKLKNRILRSATHESMADSEGKPTEDLIKKYMELAQGEVGAIITGYTGVMQNGKSPAKNMLMLDKDENITSFKNMVNEIHKYDVPIILQIAHCGRQTSEKVTGKPTVAPSPIRDKIYRGSVPHELTDVAINEIIEAFVNAIERAIKAGFDGVELHLAHGYLLSSFLSPHMNKRKDKWGGSTENRFRIVSEIMKRARQKFKNYPILAKINGYEASKDGIKLEEAIKISKALENSGINAIEVSCGIAEEGFVTIRGKVPFDMILKCDPTMKRIPEFLKPIVKHVGKLIVKSPEPHFLYNLNNAREIKNKVTIPVIVVGGIRKFSDIEDIIAKDCDFVSMSRPFIIQPSIVKTFKEGKEKESRCINCNYCLIGVETNELKCYYGKEGHHHHHH” here?
Its value is “soluble”.

For “MSLRKVRVGIWGFGAMGIGMANMILKKEGIEIVSVCSRSTSGKSMYDVLGIERGERPEVIINKNYEEVFREKSVDVVLLATDSFTKKAFDKIIFLLNRKINVISTAEQMAYPQADDADLAKKMDEVAKENGVSILGTGINPGFVLDLLVLALSGTCEEVTSIKAKRVNDLSPFGKSVMVEQGVGVTREEFIKGVEDKTIAGHVGFVESINMIADGLGWKLDKIEQTKEPIMTTVDRKSKYGEALAGNVAGCRQCGYGYVNGEVLIEMEHPQQIIPEAEGIKTGDYVSIKGIPNIDLQINPEIPGGVGTYAMIVNSIPLIINARPGLKTMLDIPVPRAIMGDIRNQIEVELEEEGHHHHHH”, which “soluble on expression in E. coli” value is on record?
Its value is “soluble”.

Which “soluble on expression in E. coli” value does the source give for “MSLRLFGTHIQAAIRPVIWLLLWQASSGFANQVRVEVEGDYDQLQENAEILLGEVQDRTADGLRRYASSAAAQVEEAVRALGYYNPTIRWQVNEQDEAPAELVLTIVPGEPVRVRSRQVDIQGPGADDPDLVQSLPERPREGDILNHGEYDGLRQAIQNRAGRLGYFDGEYETRKLKVDPDANAADILLTYRTGERYQLGEVTFLEGHGFDEQLLRQFVTTEPGEPFHADKVARLNRDLSNSGYFSGVDIDASPSQAEDRVIPVTIGLTPRPPRSVSAGVGFSTDVGPRFRGNWREHYINSMGHKRGADTELSELRQSVSGWYELPLDPPMTDSIRLGTGYQREHVEDVESERLTFGQQWNHQLDDGWMQVLSMRWEGERFRIGDGERGTSSLLLPGVSYSKLQADSPLDPSRGFRLQLDVTGAHRAVLSDADILHVNLLAKGLYTLADNHRFLARFNFGGVATNNFSDVPPSLRFFAGGDQSVRGYGYETLSPEDSDGVAVGGRYLIVGSAEYQYEFARNWRVAAFVDEGNAVNDVFDPLATGVGVGIRWVSPVGPLRLDVARGLNEELGGGWRIHFSMGPEEGHHHHHH” here?
The value was “not soluble”.

Which “soluble on expression in E. coli” value does the source give for “MSLRPYQEKARLFLNGEMSATLFVELGIATSCRKGLKKGFFNQDDFFAYQCDEWGLYGVFDGHGPGGHLVANFVQWHLPNIIHEYMITSEPRVALHRAFVEVNSMLTDASEAQKFDSASSGSTASVVLHRRQERKLFLAHVGDSRVVLARRNHQGRLVADCVTKDHKPDDPVERARIERHGGEVRRPTGHIPHRVFLKGKNYPGLAMSRSIGDSMGHCAGVTSEPDISDIDLLEDRDEVVIMCTDGVWEFMTPDEVVDIVSRYSIYQADEAAQELSREAWKRWLEQDGHSVDDITVQIIHLFPPAEEKHPEGHHHHHH” here?
The value was “soluble”.

For “MSLRRGIYHIENAGVPSAIDLKDGSSSDGTPIVGWQFTPDTINWHQLWLAEPIPNVADTFTLCNLFSGTYMDLYNGSSEAGTAVNGWQGTAFTTNPHQLWTIKKSSDGTSYKIQNYGSKTFVDLVNGDSSDGAKIAGWTGTWDEGNPHQKWYFNRMSVSSAEAQAAIARNPHIHGTYRGYILDGEYLVLPNATFTQIWKDSGLPGSKWREQIYDCDDFAIAMKAAVGKWGADSWKANGFAIFCGVMLGVNKAGDAAHAYNFTLTKDHADIVFFEPQNGGYLNDIGYDSYMAFY”, which “soluble on expression in E. coli” value is on record?
The value was “soluble”.

Which “soluble on expression in E. coli” value does the source give for “MSLRSVVSFNEGWSFHEGFGQRLLENFDAAKPVSLPHTAVELPFNYFDEKSYQRAFTYQKVLRWLPEFEGREVSLVFDAAMADSVVYLNGEEITAHKDGYTPFEARLTGKLLKGENLVTVKIDGSENPAIPPFGGRIDYLTYAGIYRDVWLKVTDPVSIRNLKIETADVLAPHKSASIRVDLANPEGRSFSATLTAALKQADGTVIATAATETIGNRTTLSLGGLTGITLWDITNPTLYEVTVELRTEHGSDRLSTRFGFRTAEFTPEGFLLNGKPLKLRGLNRHQAFPYVGYAAGRSAQERDADIMKSVLKCNIVRTSHYPQSKWFLDRCDAIGLLVFEEIPGWQHIGDADWQKESIENVRRMIERDWNHPSIIIWGVRINESQDSHDFYAETNRLARELDSTRQTGGVRYITESELLEDVYTMNDFILGNEELPGANRPRTVLRGQQENTGLSRKVPYLITEFNGHMHPTKIYDQEQRQAEHVRRHLEVLNAAYGDPDISGAIGWCMFDYNTHKDFGSGDRVCYHGVMDMFREPKFAAYAYISQCEPSEEIVMKPVTFWARGERNIGGVLPLIILTNCDEVELQYGALSKRVGPDRENYPHLPHPPVVLDHRHFTADELGTWGLEWIDGALTGFIAGEAVVSLNLAADPLPTTLEMVADSSTLKTRERDSTRVIIRALDQCGQRLPFMNDSISLKVHGPARIVGPTNVPLQGGTSGFWLEATGLVGEITVEAVSSRFAPVTLNVTAVAEGHHHHHH” here?
Its value is “soluble”.

Which “soluble on expression in E. coli” value does the source give for “MSLRTSASLAGSLAYGMADFLGRSEHLSIIDMIVPRMRQDNVETVVGMFDGQPSSTGGSRVAKFLHENFLHTFSAELKRLRRDEQETPLDAFRRTFLTLNRNMAFACYKSIDQDVRLFQEDSSDQKKVRLNKEDLQSGGVATVLYLNNTDLYAANIGDAQAILVKSDGSMRYLTRNHDPAEAGERARIRAAGGFVSRNGRLNDYLPVSRSFGYFNLMPAVIAAPHTMHVSLTEQDEMIILASKELWDYVTPDLVVDVTRAERRDLMVAAQKIRDLALSFGANNKLMVMILGVGDLREGHHHHHH” here?
Its value is “soluble”.

With “MSLRVLGIETSCDETGIAIYDDEKGLLANQLYSQVKLHADYGGVVPELASRDHVRKTVPLIQAALKESGLTAKDIDAVAYTAGPGLVGALLVGATVGRSLAFAWDVPAIPVHHMEGHLLAPMLEDNPPEFPFVALLVCGGHTQLISVTGIGQYELLGESIDDAAGEAFDKTAKLLGLDYPGGPLLSKMAAQGTAGRFVFPRPMTDRPGLDFSFSGLKTFAANTIRDNGTDDQTRADIARAFEDAVVDTLMIKCKRALDQTGFKRLVMAGGVSANRTLRAKLAEMMKKRRGEVFYARPEFCTDNGAMIAYAGMVRFKAGATADLGVSVRPRWPLAELPAEGHHHHHH” as the sequence, how does the “soluble on expression in E. coli” value read?
The value was “soluble”.

For “MSLRVRQIDRREWLLAQTATECQRHGREATLEYPTRQGMWVRLSDAEKRWSAWIKPGDWLEHVSPALAGAAVSAGAEHLVVPWLAATERPFELPVPHLSCRRLCVENPVPGSALPEGKLLHIMSDRGGLWFEHLPELPAVGGGRPKMLRWPLRFVIGSSDTQRSLLGRIGIGDVLLIRTSRAEVYCYAKKLGHFNRVEGGIIVETLDIQHIEEENNTTETAETLPGLNQLPVKLEFVLYRKNVTLAELEAMGQQQLLSLPTNAELNVEIMANGVLLGNGELVQMNDTLGVEIHEWLSESGNGE”, which “soluble on expression in E. coli” value is on record?
The value was “not soluble”.

Which “soluble on expression in E. coli” value does the source give for “MSLRVTLTDVARAAGVSKSTVSLVLNDSSLIKKETQQKVQQAIEQLGYVYNRFAANLRSQKSLTIGVVIDDLINPFFAEFTMGLEMTLAEHGFITVMSNTSQRSDRQKQVLDTLLEHHVAGIVLCPVNSTSEADLQRYANSSTPLLITMRPLDWQQLPVDYVGVDSHAGVREATEYLIQQGHRDIVFIGGLTHHMRYQGYLEAMNHHGLQPWSTDAFSLRAEPTQANGYQLMQQLLDMPSPPTAVICYNDLMAFGAESALGERGLFAGEDISLIGNDGVAACAYSNPPLTTIAVEPLALGKQAAQQILRRIAQPDAPLSHYIYRPTLQIRASTGKEGHHHHHH” here?
Its value is “soluble”.

Which “soluble on expression in E. coli” value does the source give for “MSLRYIVALTGGIGSGKSTVANAFADLGINVIDADIIARQVVEPGAPALHAIADHFGANMIAADGTLQRRALRERIFANPEEKNWLNALLHPLIQQETQHQIQQATSPYVLWVVPLLVENSLYKKANRVLVVDVSPETQLKRTMQRDDVTREHVEQILAAQATREARLAVADDVIDNNGAPDAIASDVARLHAHYLQLASQFVSQEKPEGGSHHHHHH” here?
Its value is “soluble”.

Which “soluble on expression in E. coli” value does the source give for “MSLRYIYFFGRKINLSERDKIFRDITSKYKCIHDLRCAFDHTEISSFENIDFNIIDDYLFYIELNEKSYTFNDGISLMVQERFWEAHEALEQLWRHSNGLEKSTLRFIIMVCTAFVHLQRGHYSIYHEVMENALKIDTYNEYKCINIKSLKSEIRSGIFNTYFFIKSLKEGHHHHHH” here?
Its value is “soluble”.

Which “soluble on expression in E. coli” value does the source give for “MSLSAELLLNVTPSETRVAMIEGGILQEIHIEREAKRGIVGNIYKGKVSRVLPGMQAAFVDIGLDKAAFLHASDIVPHTECVAESEKQQFQVRDISELVRQGQDIVVQVVKDPLGTKGARLTTDITLPSRYLVFMPGASHVGVSQRIESEAERERLKKIVSHYCDEHGGFIIRTAAEGANEKELTQDAAFLKRLWSKVIERRSKYKNRSMLYGELGLAQRILRDFVGTELTKILIDSRQEFENLKEFTSEYVPELTAKLELYHGDKPIFDMYDTENEIQRSLERKVELKSGGYLIIDQTEAMTTIDINTGAFVGRRNLEETIFNTNIEATQAIARQLRLRNLGGIIIIDFIDMASDEHRKRVLTSLETALMKDRVKTNINGFTQLGLVEMTRKRTRESIEHVLCSTCPTCEGRGSVKTVETVCFEILREITRVNRAYDADKFVVYASPAVADTLQGEESHALAELEVFIGKEVRIQAEPLYNQEQFDVVMMEGGSHHHHHH” here?
Its value is “soluble”.

Which “soluble on expression in E. coli” value does the source give for “MSLSARAEDINNIENKTIGHGRTSYNKSVSGRVENIRLSTESVDYVVLGSGDTFTFNGIVGERTKERGYQVASVIMDGDFTDGLGGGICQTSTTLYNAVLDAGLTVLERHPHSLPVGYVEEGMDAMVSWGSADLRFRNDFDYPVVIRGGVDKEKGEVWFDIREGHHHHHH” here?
Its value is “soluble”.

Which “soluble on expression in E. coli” value does the source give for “MSLSDNDLQRRILDAVDAGFDAQLATTRDFVAIPSTRGAEGPCQDMIGDLLRQRGYEVDDWHIDLDDLKDLRGYGPIEHDFSKARTVVGTYRPSTNAGRSLILQGHCDVVPAGPLEMWDTPPFSPVIKQGRMYGRGACDMKSGTIGALYALDAIKAAGLRPTGRIHFQSVIEEESTGVGALSTLQRGYRADACFIPEPTGGKMVRSQVGVIWFRLKVRGYPVHVATAGTGSNAITAAYHLIDALGKLEEEWNRRAASDPHFKTLAHPINFNPGIIKGGDWASSVPAWCDVDCRIAILPGWSVADHQAEILACVSAAARDHRFLSNNPPQVEWSGFLSEGYELKNAAEPEAAFGKAYQAVYGSEVEDLVFTALTDTRFYGLNYNIPSLCFGASGEAMHGFNEYIDLESLRQSTKATALFIAEWCGVEPAEGHHHHHH” here?
Its value is “soluble”.

Which “soluble on expression in E. coli” value does the source give for “MSLSDNIYSVSQLNSAARQMLEGNFCQIWLTGEISNFTQPVSGHWYLTLKDENAQVRCAMFRMKNLRVAFRPQNGMQVLVRANVSLYEPRGDYQLIIDSMHPAGEGLLQQQFEALKMKLAAEGLFAQNLKKTLPHFSKAVGIITSSTGAALQDILHILARRDPSLKVVIYPTAVQGKEATAEIVQMIELANARQEVDVLIVGRGGGSLEDLWCFNEEEVARAIFRSTLPIISAVGHETDVTIADFVADLRAPTPSAAAELVSRNQDELLQQLRHQQQRLDMAFDRLFTRKSQRLKQLALRLQNQHPQNQLRAQQAKNEQLTHRLQLAILRQFENTQQKFTALSVRLKQNPLPYRIQRYQQGLEQLKVRLNFCVNRQVTERQNKLATLCGKLDGLSPLKVLARGYSIAENPQGKAIVSVKDVNQGDFITTQVADGKIVSKVLEGHHHHHH” here?
Its value is “not soluble”.
